Assay results from paper PMC3232246.

Biological target: EGFP-tagged Rac1-Y64F (human), P63000
Assay: co-IP; MEF co-transfected with an EGFP-Rac1 construct and Flag-βPIX, Myc-Tiam1 or Myc-RhoGDI; modified RIPA buffer; 800 µg lysate, anti-GFP antibody and protein A sepharose, 4 °C; blots with anti-Flag or anti-Myc, normalised to the precipitated EGFP-Rac1
Conditions: remark: other sources report otherwise

B1: Myc-tagged RhoGDI, P52565 1-204 (natural protein)
chain: MAEQEPTAEQLAQIAAENEEDEHSVNYKPPAQKSIQEIQELDKDDESLRKYKEALLGRVAVSADPNVPNVVVTGLTLVCSSAPGPLELDLTGDLESFKKQSFVLKEGVEYRIKISFRVNREIVSGMKYIQHTYRKGVKIDKTDYMVGSYGPRAEEYEFLTPVEEAPKGMLARGSYSIKSRFTDDDKTDHLSWEWNLTIKKDWKD
Q: B1 was tested. Which percent drop in binding against wild type did it give?
A: Its percent drop in binding against wild type is greater than 50%.
